Data taken from the supplement of paper PMC11502859.

Tested on: HEK293T
Experiment: median enrichment of reporter reads in eGFP-reduced (low/intermediate) vs eGFP-high sorted cells (eGFP-extension fusion abundance) (ratio); higher = stronger loss of eGFP-fusion protein abundance (more destabilising extension)
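Further: lentiviral eGFP-IRES-mCherry reporter pool sorted by FACS 96 h post-transduction, gated on mCherry-high cells, Illumina read counts normalized per million, median across four biological replicates.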

Row | Substance | median enrichment
1 | CACPHPPSSLPSC [PADI1] | 0.421
2 | RAETSALLTLRDTTRLHGEV [CORO2A] | 6.49
3 | TAPALELGARAAELVFGPQRRIQNQKLKSDVRWAPAPSAESRQGEAGWSQAPSHAAPKSWTHLWGAPHLHLRPHISPLPFLYV [MYO9B] | 5.92
4 | SAPCSTPSPPHPPWAGS [MOSPD3] | 4.09
5 | YGTKPRRIPPQ [CA10] | 0.595
6 | RGAHGQDWWGLQDVRRVRCLALATLFLVGFCCCSCYFHL [PSMC3IP] | 7.83
7 | LKH [HOXA2] | 0.608
8 | LPHHTPDHQESQGCCFATHQHRFAQKLCPRLGRSYFKKTWFSWSRWLTPVIPALWEAKPDGS [COG7] | 8.59
9 | LLYSILWSSSSVARPLILSFAHVHPN [KCNK17] | 25.2
10 | WCPPKP [FAM8A1] | 0.371
11 | LGLLPLGPLTLSGWWTTKYNPVYNLKIYFTFVLLYLFIKG [SMAD4] | 5.85
12 | QLICYVNLSFAFLFD [DGKB] | 13.9
13 | WNLLSMILPATPLPSLAQSRGAMLSAHPSCTLAPCSRDVSTHSLC [MYPOP] | 7.81
14 | RHSTRPPGLLGPPTPTALTAFPIAPGSSPPLGGTVKGSSLTRRLLLPLGSQLPPQESLLGRTLRTPSLHPVVL [KLC4] | 9.71
15 | LPCSSTVTTRQALLSAEGVIPGPPVCVIVTMPCRDILEATHGWRNPEPPPQPTWLFVDSRRQGCAWLLTCC [PFKFB4] | 11.1
16 | RSPPHLRPKGRPPPAFLTPALLPQRMWGGGGGPCGPGAQLPGTPVPGQAHLEEESLPPPKYWAALSLPRDHPSLPAMCTIMTN [GPR108] | 3.35
17 | YWCGK [NME7] | 2.52
18 | RRLSISRDMVLTQQFPVMAKCSI [IL13RA2] | 6.6
19 | YQVAELGPLGQGAQATSSFVVTKQGSPFPFLLPYFVQRTRVIYIYICICLYPSPHLSDSALGTQLWAARGAVPCGSSCVCVPS [SCAMP5] | 8.36
20 | STARIKNMFPCLSDTSLLDEARKIYMKILKIHIADFMEWTSCISTEKQQHNNTKILGTLK [CDKN1B] | 38.1
21 | GGLLALTLQPTLAVWPSPGSFPAPLPLFPVLLNSPSWRVQALGMGGTRPHSFHRALRPDTADQPHSAQEAASGVGAQRGTAAS [BAP1] | 5.39
22 | CVAGVEVLIEYDRRMTITLSAQCG [OR10H2] | 6.41

Row | Substance | median enrichment
23 | YGWGRVAASFVPTGGSHNSFDL [ELP5] | 5.96
24 | YLDHDLVQ [TRAT1] | 0.456
25 | EETTHPEPQHCLTLGTRDPTEMFWRAGGFPQSPPSSSPSNQSCV [SERPINA6] | 0.705
26 | YSGLPVASSSTTELQTNHPKCRLDGEGKDWGGRVNSEGCPLPIPPGP [PODXL] | 21.5
27 | RSQLCSGQACSLRTLTTLDLELGTCGHSSSPGCIP [CIITA] | 42.6
28 | KKPPAQLETC [METTL16] | 0.455
29 | RCCCHGGLGQRGERSVLEA [OBSCN] | 11.1
30 | LRSRRDEAASPFSASPPAQGPSGGACRTCPGTVAPQACLSCRVPMAWSLHLTDWSPLPDSHFQKLGGRDTWKTPVTSFLLRA [DPM2] | 4.89
31 | LTGLPTWLPT [AANAT] | 1.93
32 | YFLSVILP [GLB1L3] | 8.25
33 | WNFENKI [RNASEH2B] | 0.528
34 | QFCPPVTPVSGTRNPQHALMLCF [DNMT1] | 4.79
35 | LAGVFVPVSLILSRH [KCNS3] | 5.72
36 | GGGSRSDQLIAHMLCLDME [HNRNPAB] | 3.08
37 | LTYFNYCIFISSFPNTNKIIL [DYNC2LI1] | 8.97
38 | LTSSLQRSESGGGSACREGLDLHIFSGVVRASPYLLLSPCEEDPDLASFPRRGWGVPRVPVLEGPPSPSLITVLFSAPPSAAR [ZNF646] | 4.64
39 | LEKPSSFVETVALQPWRRTCWYLKNGTFATQD [DOCK8] | 6.15
40 | LSVCHR [DPYS] | 1.17
41 | GCVLSQIYLLD [HYPK] | 11.9
42 | YKKRLLLGLDR [Degron FEM1B] | 9.09
43 | SDARQFLDLGGLKRPPSCLLSFSVSSFLLVFFILFSFHQPSCILALQRDRDRSSAQGFSLPLFIMGGGYHPPSQSCEESGTSF [NOTCH3] | 5.68
